Laboratory results reported in patent publication US20230002480A1.

Columns and labels:
Test in all cases: cell-based or functional assay
[1] = biological target: HIV-1 Env of pseudovirus CNE17 (clade BC) (HIV-1)
[2] = biological target: HIV-1 Env of pseudovirus CAAN5342.A2 (clade B) (HIV-1)
[3] = biological target: HIV-1 Env of pseudovirus CNE30 (clade BC) (HIV-1)
[4] = biological target: HIV-1 Env of pseudovirus 1054_07_TC4_1499 (clade B (T/F)) (HIV-1)
[5] = biological target: HIV-1 Env of pseudovirus 6535.3 (clade B) (HIV-1)
[6] = biological target: HIV-1 Env of pseudovirus Ce0393_C3 (clade C (T/F)) (HIV-1)
[7] = biological target: HIV-1 Env of pseudovirus ZM249M.PL1 (clade C) (HIV-1)
[8] = biological target: HIV-1 Env of pseudovirus CAP210.2.00.E8 (clade C) (HIV-1)
[9] = biological target: HIV-1 Env of pseudovirus 6244_13_B5_4576 (clade B (T/F)) (HIV-1)
[10] = biological target: HIV-1 Env of pseudovirus CNE52 (clade BC) (HIV-1)
[11] = biological target: HIV-1 Env of pseudovirus HIV-0013095-2.11 (clade C) (HIV-1)
[12] = biological target: HIV-1 Env of pseudovirus 1012_11_TC21_3257 (clade B (T/F)) (HIV-1)
[13] = biological target: HIV-1 Env of pseudovirus Q769.d22 (clade A) (HIV-1)
[14] = biological target: HIV-1 Env of pseudovirus RHPA4259.7 (clade B) (HIV-1)
[15] = biological target: HIV-1 Env of pseudovirus P0402_c2_11 (clade G) (HIV-1)
[16] = biological target: HIV-1 Env of pseudovirus 211-9 (clade CRF02_AG) (HIV-1)
[17] = biological target: HIV-1 Env of pseudovirus BJOX010000.06.2 (clade CRF01_AE (T/F)) (HIV-1)
[18] = biological target: HIV-1 Env of pseudovirus R3265.c06 (clade CRF01_AE) (HIV-1)
[19] = biological target: HIV-1 Env of pseudovirus BJOX009000.02.4 (clade CRF01_AE) (HIV-1)
[20] = biological target: HIV-1 Env of pseudovirus X1193_c1 (clade G) (HIV-1)
[21] = biological target: HIV-1 Env of pseudovirus C2101.c01 (clade CRF01_AE) (HIV-1)
[22] = biological target: HIV-1 Env of pseudovirus CNE5 (clade CRF01_AE) (HIV-1)
[23] = biological target: HIV-1 Env pseudovirus 3103.v3.c10 (HIV-1)
[24] = biological target: HIV-1 Env pseudovirus T257-31 (HIV-1)
[25] = biological target: HIV-1 Env pseudovirus CNE8 (HIV-1)
[26] = biological target: HIV-1 Env pseudovirus T255-34 (HIV-1)
[27] = biological target: HIV-1 Env pseudovirus 263-8 (HIV-1)
[28] = biological target: HIV-1 Env pseudovirus 3365.v2.c2 (HIV-1)
[29] = biological target: HIV-1 Env pseudovirus BJOX028000.10.3 (HIV-1)
[30] = biological target: HIV-1 Env pseudovirus P0402_c2_11 (HIV-1)
[31] = biological target: HIV-1 Env pseudovirus 6480.v4.c25 (HIV-1)
[32] = biological target: HIV-1 Env pseudovirus 6545.v4.c1 (HIV-1)

N49P11 (antibody) was tested, and the IC50 [1] was 6.68 µg/mL, the IC80 [1] was 25.6 µg/mL and the MPI [1] was 100. The IC50 [2] was 9.03 µg/mL, the IC80 [2] was 20.8 µg/mL and the MPI [2] was 100. The IC50 [3] was 0.889 µg/mL, the IC80 [3] was 4.45 µg/mL and the MPI [3] was 100. For the same substance, the IC50 [4] was 2.92 µg/mL, the IC80 [4] was 13.1 µg/mL and the MPI [4] was 100. For the same substance, the IC50 [5] was 8.22 µg/mL, the IC80 [5] was 17.2 µg/mL and the MPI [5] was 100. For the same substance, the IC50 [6] was 1.51 µg/mL, the IC80 [6] was 9.71 µg/mL and the MPI [6] was 100. For the same substance, the IC50 [7] was 3.64 µg/mL, the IC80 [7] was 17.4 µg/mL and the MPI [7] was 100. The IC50 [8] was 5.12 µg/mL, the IC80 [8] was 19.4 µg/mL and the MPI [8] was 100. For the same substance, the IC50 [9] was 1.12 µg/mL, the IC80 [9] was 5.45 µg/mL and the MPI [9] was 100. The IC50 [10] was 0.06 µg/mL, the IC80 [10] was 0.307 µg/mL and the MPI [10] was 100. The IC50 [11] was 5.85 µg/mL, the IC80 [11] was 17.8 µg/mL and the MPI [11] was 100. For the same substance, the IC50 [12] was 10.6 µg/mL, the IC80 [12] was 29.3 µg/mL and the MPI [12] was 100. The IC50 [13] was 0.048 µg/mL, the IC80 [13] was 0.308 µg/mL and the MPI [13] was 100. The IC50 [14] was 0.202 µg/mL, the IC80 [14] was 0.956 µg/mL and the MPI [14] was 100.

For 10E8 (antibody), the IC50, titer in TZM.bl cells [15] was 0.172 µg/mL, the IC80, titer in TZM.bl cells [15] was 3.29 µg/mL and the IC50, titer in TZM.bl cells [16] was 1.09 µg/mL. It also gave an IC80, titer in TZM.bl cells [16] of 6.51 µg/mL, an IC50, titer in TZM.bl cells [17] of 0.341 µg/mL and an IC80, titer in TZM.bl cells [17] of 5.29 µg/mL. The IC50, titer in TZM.bl cells [18] was > 10 µg/mL, the IC80, titer in TZM.bl cells [18] was > 10 µg/mL and the IC50, titer in TZM.bl cells [19] was 1.57 µg/mL. It also gave an IC80, titer in TZM.bl cells [19] of 9.95 µg/mL, an IC50, titer in TZM.bl cells [20] of 0.497 µg/mL and an IC80, titer in TZM.bl cells [20] of 4.2 µg/mL. The IC50, titer in TZM.bl cells [21] was 1.92 µg/mL, the IC80, titer in TZM.bl cells [21] was 8.26 µg/mL and the IC50, titer in TZM.bl cells [22] was 1.41 µg/mL. For the same substance, the IC80, titer in TZM.bl cells [22] was 9.64 µg/mL.

In the case of N49P7.2 (antibody), the IC50 [1] was 0.376 µg/mL, the IC80 [1] was 1.24 µg/mL and the MPI [1] was 100. The IC50 [2] was 0.809 µg/mL, the IC80 [2] was 2.81 µg/mL and the MPI [2] was 100. The IC50 [3] was 0.362 µg/mL, the IC80 [3] was 1.2 µg/mL and the MPI [3] was 100. For the same substance, the IC50 [4] was 2.04 µg/mL, the IC80 [4] was 10.7 µg/mL and the MPI [4] was 99. For the same substance, the IC50 [5] was 0.152 µg/mL, the IC80 [5] was 0.784 µg/mL and the MPI [5] was 100. For the same substance, the IC50 [6] was 0.137 µg/mL, the IC80 [6] was 0.368 µg/mL and the MPI [6] was 100. For the same substance, the IC50 [7] was 0.073 µg/mL, the IC80 [7] was 0.256 µg/mL and the MPI [7] was 100. For the same substance, the IC50 [8] was 3.94 µg/mL, the IC80 [8] was 21.7 µg/mL and the MPI [8] was 95. The IC50 [9] was 0.331 µg/mL, the IC80 [9] was 1.04 µg/mL and the MPI [9] was 100. For the same substance, the IC50 [10] was 0.03 µg/mL, the IC80 [10] was 0.088 µg/mL and the MPI [10] was 100. For the same substance, the IC50 [11] was 0.183 µg/mL, the IC80 [11] was 0.931 µg/mL and the MPI [11] was 97. It also gave an IC50 [12] of 0.06 µg/mL, an IC80 [12] of 0.285 µg/mL and an MPI [12] of 100. For the same substance, the IC50 [13] was 0.029 µg/mL, the IC80 [13] was 0.14 µg/mL and the MPI [13] was 100. For the same substance, the IC50 [14] was 0.1 µg/mL, the IC80 [14] was 0.289 µg/mL and the MPI [14] was 100.

N49P19 (antibody) was tested, and the IC50 [23] was > 50 µg/mL, the IC80 [23] was > 50 µg/mL and the MPI [23] was 0. The IC50 [24] was 0.661 µg/mL, the IC80 [24] was 3 µg/mL and the MPI [24] was 100. For the same substance, the IC50 [25] was 0.772 µg/mL, the IC80 [25] was 4.84 µg/mL and the MPI [25] was 97. It also gave an IC50 [26] of 0.948 µg/mL, an IC80 [26] of 6.22 µg/mL and an MPI [26] of 97. For the same substance, the IC50 [27] was 0.344 µg/mL, the IC80 [27] was 1.51 µg/mL and the MPI [27] was 99. It also gave an IC50 [28] of 0.579 µg/mL, an IC80 [28] of 2.09 µg/mL and an MPI [28] of 99. The IC50 [29] was 7 µg/mL, the IC80 [29] was > 50 µg/mL and the MPI [29] was 80. It also gave an IC50 [30] of 0.448 µg/mL, an IC80 [30] of 2.63 µg/mL and an MPI [30] of 100. For the same substance, the IC50 [31] was 3.04 µg/mL, the IC80 [31] was 28.2 µg/mL and the MPI [31] was 87. For the same substance, the IC50 [32] was > 50 µg/mL, the IC80 [32] was > 50 µg/mL and the MPI [32] was 2.

In the case of N49P9.1 (antibody), the IC50 [23] was > 50 µg/mL, the IC80 [23] was > 50 µg/mL and the MPI [23] was 45. For the same substance, the IC50 [24] was 0.508 µg/mL, the IC80 [24] was 1.82 µg/mL and the MPI [24] was 100. It also gave an IC50 [25] of 0.228 µg/mL, an IC80 [25] of 0.921 µg/mL and an MPI [25] of 100. For the same substance, the IC50 [26] was 0.092 µg/mL, the IC80 [26] was 0.286 µg/mL and the MPI [26] was 100. The IC50 [27] was 0.049 µg/mL, the IC80 [27] was 0.17 µg/mL and the MPI [27] was 100. For the same substance, the IC50 [28] was 0.055 µg/mL, the IC80 [28] was 0.725 µg/mL and the MPI [28] was 100. The IC50 [29] was 0.04 µg/mL, the IC80 [29] was 0.2 µg/mL and the MPI [29] was 100. It also gave an IC50 [30] of 0.06 µg/mL, an IC80 [30] of 0.163 µg/mL and an MPI [30] of 100. It also gave an IC50 [31] of 0.03 µg/mL, an IC80 [31] of 0.082 µg/mL and an MPI [31] of 100. For the same substance, the IC50 [32] was > 50 µg/mL, the IC80 [32] was > 50 µg/mL and the MPI [32] was 6.
